In the RNAGym collection of RNA variant scans (doi:10.1101/gr.219683.116):

B1: mRNA-splicing (parent)
chain: AGUUGCUGCUGGGAGCUCCAGCACAGUGAAAUGGACAGAAGGGCAGAGCAA

Variants of: B1
Test: exon inclusion enrichment index; higher = more inclusion; WT1 exon 5 minigene, HEK293

Row | Variant | exon inclusion enrichment index
1 | G5A C6G U7G C9A C18A C19U | 0.00126
2 | G5C C6U G8C C9U U10C U32G G33U | 0.774
3 | G5A C6G U7G C9A G41A G42C | 0.0072
4 | C6A U7A C9A U10A C44U A45G | 0.419
5 | C6A U7A C9A U10A C44A | 1.49
6 | G5A C6U U7A G8U C9A G15A | 0.0278
7 | G5A C6U U7A G8U C9A A35U | 0.00487
8 | G5C C6A U7C G8A U10A G34C A35C | 0.0037
9 | G5A C6G U7G C9A C44U A45U | 0.000761
10 | G5A C6U G8A C9A | 0.0634
11 | G5C C6G U7C U10C C36G A37C | 1.47
12 | G5A C6G U7G C9A G46C A47C | 0.00161
13 | C6G U7C G8A U10A | 0.0835
14 | C6A U7A U10G | 0.84
15 | A14U G15A | 0.0161
16 | G2U G5A C6G U7G C9A | 0.0266
17 | G5A C6G U7G C9A A47U G48A | 0.00057
18 | G2C U3A G5C C6A U7C G8A U10A | 0.0802
19 | G5A C6U U7A G8U C9A G41A G42C | 0.172
20 | G5C C6U G8C C9U U10C A29G A30C | 0.838
21 | G5A C6G U7G C9A C19A A20C | 0.00131
22 | G5A C6G U7G C9A G28C A29C | 0.00678
23 | C6A U7A C9A U10A G15A C16G | 0.366
24 | G5A C6G U7G C9A U27C G28U | 0.00816

Row | Variant | exon inclusion enrichment index
25 | C6A U7C C9A U10C A29C A30C | 3.72
26 | G5A U7C G8A U10C G43A C44A | 3.99
27 | C6A U7A C9A U10A A47C | 1.15
28 | G5C C6U G8C C9U U10C A23U C24G | 2.38
29 | C6A U7A C9A U10A A14C | 0.774
30 | G5C C6U G8C C9U U10C G33A G34U | 0.283
31 | G5C C6G U7C U10C C36A A37G | 2.14
32 | U4G | 0.0792
33 | G5C C6G U7A G8C U10C | 2.57
34 | G42A G43A | 1.43
35 | C6A U7C C9A U10C U17C C18U | 3.39
36 | G38C A39G | 0.21
37 | C6A U7A C9A U10A U17C C18U | 0.491
38 | G5A C6U U7A G8U C9G | 0.0579
39 | G5C C6A U7C G8A U10A A30C A31C | 0.314
40 | U4G G5C C6G U7G C9A | 0.248
41 | G5U G8U C9U G48C | 0.251
42 | G5U C6U U7G C9A | 0.469
43 | C6A U7A C9A U10A G41A G42A | 0.559
44 | C6A U7C C9A U10C G21A C22A | 2.06
45 | G5A C6U U7A G8U C9A G26U U27A | 0.0488
46 | G5C C6A U7C G8A U10A U27G G28A | 0.122
47 | G5A C6U U7A G8U C9A G28U A29U | 0.00744
48 | G5A C6U U7A G8U C9A G46C A47U | 0.0869

Row | Variant | exon inclusion enrichment index
49 | G5C C6A U7C G8A U10A A37U | 0.0984
50 | G5C C6U G8C C9U U10C G28A A29U | 0.475
51 | G5A U7C G8A U10C A23G C24G | 3.83
52 | C6A U7C C9A U10C G33U G34U | 1.05
53 | G5C C6G U7C U10C G15C C16A | 3.23
54 | C6G U7G C9A U10A | 0.0539
55 | G5C C6U G8C C9U U10C A30U A31U | 1.52
56 | G5C C6U G8C C9U U10C C22A A23C | 2.99
57 | C6A U7C C9A U10C G13C A14C | 2.43
58 | C6A U7A C9A U10A A23G C24U | 0.189
59 | G5U G8U C9U A37C G38C | 0.175
60 | G5C C6G U7C U10C A40G G41A | 1.99
61 | U4A C6A U7A C9A U10A | 0.122
62 | G2U U3C C6A U7A C9A U10A | 2.31
63 | G5C C6U G8C C9U U10C G11C G12A | 0.634
64 | G5A C6U U7A G8U C9A U17G C18A | 0.0489
65 | U3A U4A G5U G8U C9U | 0.296
66 | U27C G28U | 0.00627
67 | G5C C6U C9U U10C | 1.13
68 | G5A C6U U7A G8U C9A A40G G41A | 0.0181
69 | G5C C6G U7C U10C G26A U27A | 3.45
70 | G5C C6G U7C U10C G26A U27G | 3.56
71 | U4G G5A G8U C9U | 0.369
72 | G5C C6G U7C U10C G12U G13C | 0.741

Row | Variant | exon inclusion enrichment index
73 | G5C C6A U7C G8A U10A G15C C16G | 0.0998
74 | C6A U7C C9A U10C C24U A25U | 2.88
75 | C6A U7C C9A U10C C24U A25G | 3.92
76 | G5C C6A U7C G8A U10A G41U G42C | 0.369
77 | G5A C6U U7A G8U C9A C18A C19A | 0.00553
78 | U4C G5A C6U U7A G8U C9A | 0.47
79 | G5C C6U G8C C9U U10C A20C | 1.41
80 | C6A U7C C9A U10C U32G G33A | 1.61
81 | G5C C6U G8C C9U U10C C16A U17G | 1.15
82 | G5A U7C G8A U10C C18G C19G | 2.62
83 | G5C C6G U7C U10C U32C | 4.75
84 | C6A U7A C9A U10A C36G A37C | 0.129
85 | G5U G8U C9U G13A A14G | 0.152
86 | U3G G5U G8U C9U | 0.0452
87 | G5C C6A U7C G8A U10A U27A G28U | 0.0378
88 | G5C C6A U7C G8A C9U U10G | 0.525
89 | G5C C6U G8C C9U U10C G26U U27G | 2.97
90 | G5A U7C G8A U10C G15C | 2.72
91 | G12C G13C | 0.309
92 | G5C C6G U7C U10C A20C G21A | 1.97
93 | G5C C6G U7C U10C A20C G21C | 2.03
94 | U3A U4C G5C C6A U7C G8A U10A | 0.389
95 | G5C C6U G8C C9U U10C C19U | 0.105
96 | G5C C6U G8C C9U U10C G15C C16A | 1.75

Row | Variant | exon inclusion enrichment index
97 | G5U G8U C9U C24U | 0.0331
98 | G5C C6A U7C G8A U10A C18A C19A | 0.0025
99 | G5A C6U U7A G8C C9A | 0.286
100 | G5A C6G U7G C9A C36A A37U | 0.00282
101 | G5U G8U C9U C18U C19A | 0.00338
102 | U4A G5C C6A U7A C9A U10A | 0.526
103 | G5A C6U U7A G8U C9A C44A | 0.286
104 | G5A C6U U7A G8U C9A C16G U17A | 0.0334
105 | G46C A47U | 0.224
106 | G5C C6U G8C C9U U10C C19A A20G | 0.213
107 | G5C C6A U7C G8A U10A U27C | 0.417
108 | G5C C6A U7C G8A | 0.613
109 | C6A U7C C9A U10C U27G | 2.01
110 | G5C C6A U7C G8A G11U | 0.768
111 | U3G U4A | 0.0184
112 | G5A U7C G8A U10C G21A C22U | 1.26
113 | G5A C6U U7A G8U C9A C24A A25U | 0.0699
114 | G5A C6G U7G C9A G26A | 0.00477
115 | G43U C44U | 0.0355
116 | C6A U7A C9A U10A G33U | 0.2
117 | G5C C6U G8C C9U U10C A14U G15A | 0.472
118 | G5C U7G G8C C9U U10C | 0.323
119 | G5A C6U U7A G8U C9A C24U A25C | 0.546
120 | G5A U7G G8U U10C | 2.36

Row | Variant | exon inclusion enrichment index
121 | G5C C6U G8C C9U U10C G26A U27G | 2.81
122 | G5A U7C G8A U10C A23U C24U | 0.272
123 | U3C G5U G8U C9U | 0.0225
124 | G5A U7C G8A U10C G43U C44G | 0.5
125 | G5A U7C G8A U10C G15A C16G | 1.31
126 | G5A C6U U7A G8U C9A A29C A30G | 0.219
127 | C6A U7C C9A U10C C19A | 2.55
128 | G5C C6U G8C C9U U10C A35G | 0.766
129 | G5C C6A U10A | 0.116
130 | G5C C6A U7C G8A U10A G26C U27C | 0.54
131 | U3G U4G G5A C6U U7A G8U C9A | 0.0433
132 | G5A U7C G8A U10C A29C A30C | 2.73
133 | G5A C6G U7G C9A C16G U17C | 0.00106
134 | G5C C6G U7C U10C G38U A39G | 2.02
135 | G5A U7C G8A U10C A37C | 3.08
136 | G5A C6G U7G C9A A29U | 0.000861
137 | G5U G8U C9U G28A A29C | 0.0709
138 | G5A C6U U7A G8U C9A G46U A47G | 0.0512
139 | C44G A45U | 0.0615
140 | G13A A14U | 0.0995
141 | G5A U7C G8A U10C G12A G13C | 0.711
142 | G5C C6G U7C U10C A31U | 3.18
143 | G5U G8U C9U A29G | 0.246
144 | G5A U7C G8A U10A G11U | 1.37

Row | Variant | exon inclusion enrichment index
145 | G5U G8U C9U G33U G34C | 0.0164
146 | C6A U7A C9A U10A G41U G42U | 0.717
147 | G5A C6G U7G C9A G11U | 0.00542
148 | G5C C6U U7C C9U U10C | 3.09
149 | G5A C6G U7G C9A G34U A35U | 0.00101
150 | C6A U7C | 0.264
151 | C6A U7A | 0.261
152 | G5U G8U C9U C24U A25U | 0.127
153 | G5C C6U G8C C9U U10C A29C A30C | 2.52
154 | G5A C6U U7A G8U C9A A39C | 0.0192
155 | C6A U7C C9A U10C C18U C19G | 1.93
156 | G5C C6U G8C C9U U10C A29U A30U | 0.629
157 | G5U G8U C9U A29U A30C | 0.0859
158 | G5A U7C G8A U10C U17A C18A | 1.29
159 | C6A U7C C9A U10C A25G G26U | 4.03
160 | A39U A40U | 0.0388
161 | G5C C6U G8C C9U U10C G48A | 2.76
162 | G5U G8U C9U G28U | 0.0111
163 | G5A U7C G8A U10C A31G U32G | 1.52
164 | C6A U7A C9A U10A G26C U27A | 0.842
165 | G5A U7C G8A U10C C44U A45C | 3.16
166 | C6A U7A C9A U10A U27G G28C | 0.369
167 | C6A U7C C9A U10C A23U C24U | 0.978
